One variant from IntAct's records for PubMed 21880730 can be followed below.

To fix the notation:
B1: Nectin-3 (Mus musculus), Q9JLB9 (parent)
chain: MARTPGPAPLCPGGGKAQLSSAFPPAAGLLLPAPTPPPLLLLLIPLLLFSRLCGALAGSIIVEPHVTAVWGKNVSLKCLIEVNETITQISWEKIHGKSTQTVAVHHPQYGFSVQGDYQGRVLFKNYSLNDATITLHNIGFSDSGKYICKAVTFPLGNAQSSTTVTVLVEPTVSLIKGPDSLIDGGNETVAAVCVAATGKPVAQIDWEGDLGEMESSTTSFPNETATIVSQYKLFPTRFARGRRITCVVKHPALEKDIRYSFILDIQYAPEVSVTGYDGNWFVGRKGVNLKCNADANPPPFKSVWSRLDGQWPDGLLASDNTLHFVHPLTVNYSGVYVCKVSNSLGQRSDQKVIYISDPPTTTTLQPTVQWHSSPADVQDIATEHKKLPFPLSTLATLKDDTIGTIIASVVGGALFLVLVSILAGVFCYRRRRTFRGDYFAKNYIPPSDMQKESQIDVLHQDELDSYPDSVKKENKNPVNNLIRKDYLEEPEKTQWNNVENLTRFERPMDYYEDLKMGMKFVSDERYNESEDGLVSHVDGSVISRREWYV

The test covers variants of B1. The settings on record: with afad_rat Afdn.
Take MARTPGPAPLCPGGGKAQLSSAFPPAAGLLLPAPTPPPLLLLLIPLLLFSRLCGALAGSIIVEPHVTAVWGKNVSLKCLIEVNETITQISWEKIHGKSTQTVAVHHPQYGFSVQGDYQGRVLFKNYSLNDATITLHNIGFSDSGKYICKAVTLPLGNAQSSTTVTVLVEPTVSLIKGPDSLIDGGNETVAAVCVAATGKPVAQIDWEGDLGEMESSTTSFPNETATIVSQYKLFPTRFARGRRITCVVKHPALEKDIRYSFILDIQYAPEVSVTGYDGNWFVGRKGVNLKCNADANPPPFKSVWSRLDGQWPDGLLASDNTLHFVHPLTVNYSGVYVCKVSNSLGQRSDQKVIYISDPPTTTTLQPTVQWHSSPADVQDIATEHKKLPFPLSTLATLKDDTIGTIIASVVGGALFLVLVSILAGVFCYRRRRTFRGDYFAKNYIPPSDMQKESQIDVLHQDELDSYPDSVKKENKNPVNNLIRKDYLEEPEKTQWNNVENLTRFERPMDYYEDLKMGMKFVSDERYNESEDGLVSHVDGSVISRREWYV [F153L]: the “effect of a mutation on the interaction” value is “decreasing interaction”.
